Data on four molecules can be found in article PMC2728148.

By Kd is commonly meant the free concentration of one partner at which half of the binding sites on the other are occupied at equilibrium, for simple one-to-one binding.

Residue numbers refer to the chain shown, from its start. Read-outs that look alike come from different tables or passages of the source.

What all share (experiment): EMSA
The target in series [1] is T1, CSB wild-type (Homo sapiens, UniProt Q03468 1-1493).
In series [2] the target is T1, CSB wild-type. The source holds these as a separate data set.
For series [3], the target named is T1, CSB wild-type. The source holds these as a separate data set.
Series [4] addresses T1, CSB wild-type. The source holds these as a separate data set.

T1 sequence (Q03468 whole entry): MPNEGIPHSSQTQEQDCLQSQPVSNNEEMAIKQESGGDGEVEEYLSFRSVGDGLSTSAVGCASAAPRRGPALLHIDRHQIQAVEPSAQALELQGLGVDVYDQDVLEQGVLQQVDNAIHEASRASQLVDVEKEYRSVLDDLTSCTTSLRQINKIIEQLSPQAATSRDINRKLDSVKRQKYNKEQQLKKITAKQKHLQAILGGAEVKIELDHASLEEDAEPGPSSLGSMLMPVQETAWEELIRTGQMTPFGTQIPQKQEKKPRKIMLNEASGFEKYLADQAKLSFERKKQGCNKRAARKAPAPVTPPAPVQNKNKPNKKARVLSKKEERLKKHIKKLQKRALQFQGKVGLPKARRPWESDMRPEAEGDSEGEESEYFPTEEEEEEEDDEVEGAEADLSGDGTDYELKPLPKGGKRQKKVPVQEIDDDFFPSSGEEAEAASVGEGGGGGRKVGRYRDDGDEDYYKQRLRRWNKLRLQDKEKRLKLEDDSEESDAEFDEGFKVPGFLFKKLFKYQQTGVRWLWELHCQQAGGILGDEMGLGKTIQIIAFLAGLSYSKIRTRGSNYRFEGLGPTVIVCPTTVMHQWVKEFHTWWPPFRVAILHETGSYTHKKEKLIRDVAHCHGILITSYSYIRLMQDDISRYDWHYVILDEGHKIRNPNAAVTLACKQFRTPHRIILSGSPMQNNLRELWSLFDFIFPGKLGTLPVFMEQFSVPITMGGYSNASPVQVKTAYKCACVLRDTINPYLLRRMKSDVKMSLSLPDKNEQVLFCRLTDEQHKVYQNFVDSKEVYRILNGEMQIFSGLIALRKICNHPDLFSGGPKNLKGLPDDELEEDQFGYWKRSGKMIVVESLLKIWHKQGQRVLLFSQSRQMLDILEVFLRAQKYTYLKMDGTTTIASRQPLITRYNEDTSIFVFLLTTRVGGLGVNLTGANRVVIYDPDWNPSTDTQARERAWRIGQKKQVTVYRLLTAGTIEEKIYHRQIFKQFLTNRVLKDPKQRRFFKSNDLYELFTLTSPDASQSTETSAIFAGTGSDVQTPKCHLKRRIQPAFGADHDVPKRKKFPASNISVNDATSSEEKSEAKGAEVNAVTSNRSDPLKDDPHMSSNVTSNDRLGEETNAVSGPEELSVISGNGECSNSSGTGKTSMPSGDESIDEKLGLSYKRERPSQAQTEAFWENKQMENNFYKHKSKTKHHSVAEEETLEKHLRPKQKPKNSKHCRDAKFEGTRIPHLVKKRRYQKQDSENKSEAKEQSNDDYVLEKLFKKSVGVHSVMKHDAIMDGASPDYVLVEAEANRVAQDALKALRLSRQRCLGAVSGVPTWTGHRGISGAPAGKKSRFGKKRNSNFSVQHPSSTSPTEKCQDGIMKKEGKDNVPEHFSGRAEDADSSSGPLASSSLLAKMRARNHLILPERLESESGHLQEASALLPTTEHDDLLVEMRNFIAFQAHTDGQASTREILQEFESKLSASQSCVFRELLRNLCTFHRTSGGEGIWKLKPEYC

B1: 34G/34C (dsDNA)
DNA 1: GTACCCGGGGATCCGTACGGCGCATCAGCTGCAG
DNA 2: CTGCAGCTGATGCGCCGTACGGATCCCCGGGTAC
In the case of B1, the results for the Kd with CSB wild-type [1], with CSB wild-type [2] and with CSB wild-type [3] were 0.0137 ± 0.0011 µM, 0.0205 ± 0.0052 µM and 0.0107 ± 0.0006 µM, respectively.

B2: DNA50/DNA49 fork (dsDNA)
DNA 1: GGGACGCGTCGGCCTGGCACGTCGGCCGCTGCGGCCAGGCACCCGATGGC
DNA 2: TTTGTTTGTTTGTTTGTTTGTTTGCCGACGTGCCAGGCCGACGCGTCCC
For B2, the Kd with CSB wild-type [4] turned out to be 0.0059 ± 0.0006 µM.

B3: RNA50/RNA49 fork (dsRNA)
RNA 1: B2 DNA 1 with T9U, T15U, T22U, T30U, T47U
RNA 2: UUUGUUUGUUUGUUUGUUUGUUUGCCGACGUGCCAGGCCGACGCGUCCC
In the series with CSB wild-type [4], B3 had a Kd of 0.0036 ± 0.0015 µM.

B4: DNA50/RNA49 fork (DNA:RNA)
DNA: B2 DNA 1
RNA: B3 RNA 2
In the series with CSB wild-type [4], B4 gave a Kd of 0.0134 ± 0.0033 µM.
